The source of these data is patent US11548914B2, “IL-2Rgamma binding compounds” (MEDIKINE, INC., priority 2018, dated 2023).

Ends that are not written are not given here.

The target of experiment [1] is T1, extracellular domain (ECD) of IL-2Rβ (Homo sapiens, UniProt P14784).
T1 construct: Fc; purchased ACRObiosystems, Inc. ILB-H5253
T1 sequence (P14784 27-239): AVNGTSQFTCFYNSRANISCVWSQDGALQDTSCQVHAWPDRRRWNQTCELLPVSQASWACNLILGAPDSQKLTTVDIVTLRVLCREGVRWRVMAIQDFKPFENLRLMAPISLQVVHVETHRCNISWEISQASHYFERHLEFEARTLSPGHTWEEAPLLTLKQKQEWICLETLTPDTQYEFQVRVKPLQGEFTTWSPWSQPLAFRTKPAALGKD
The experiment is described as follows: competitive binding of synthetic peptides against phage clones on IL-2Rβ. The conditions noted are these: for competition with phage clone peptide SEQ ID NO: 58: phage family 1; for competition with phage clone peptide SEQ ID NO: 170: phage family 2A; for competition with phage clone peptide SEQ ID NO: 83: phage family 2B; for competition with phage clone peptide SEQ ID NO: 1034: phage family 2C; for competition with phage clone peptide SEQ ID NO: 1044: phage family 4. The method, then:
(§1) Representative phage clones displaying peptides from IL-2Rβ ligand families were bound to the extracellular domain (ECD) of IL-2Rβ immobilized in microtiter wells. Phage binding was conducted in the presence and absence of synthetic test peptides to determine if phage peptides and test peptides competed for binding to the same sites on IL-2Rβ . Synthetic test peptides were selected to represent peptides from IL-2Rβ ligand families, as well positive and negative control peptides.
(§2) Phage binding to the immobilized IL-2Rβ ECD was detected by staining with antibody against phage coat proteins (anti-phage Ab), staining with labeled secondary antibody against the anti-phage Ab, and scored by reading OD in the microtiter plate optical reader.
(§3) The ELISA signal for each phage binding in the presence and absence of the test peptides was compared to determine which synthetic peptides competed with which phage peptides for binding to the IL-2Rβ subunit.

A further experiment has as its target T2, IL-2Rγc subunit (Homo sapiens, UniProt P31785).
T2 construct: Fc; purchased ACRObiosystems, Inc. ILG-H5256
T2 sequence (P31785 23-254): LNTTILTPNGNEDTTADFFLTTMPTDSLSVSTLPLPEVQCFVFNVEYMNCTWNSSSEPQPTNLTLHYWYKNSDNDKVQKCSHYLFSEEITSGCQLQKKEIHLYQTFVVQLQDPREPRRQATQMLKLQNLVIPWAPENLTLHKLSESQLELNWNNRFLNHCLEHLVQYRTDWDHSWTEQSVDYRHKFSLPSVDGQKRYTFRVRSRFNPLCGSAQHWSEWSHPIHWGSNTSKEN
In words: competitive binding of synthetic peptides against phage clones on IL-2Rγc. The conditions noted are these: for competition with phage clone peptide SEQ ID NO 198: phage family 1A; for competition with phage clone peptide SEQ ID NO 224: phage family 1B; for competition with phage clone peptide SEQ ID NO 236: phage family 2; for competition with phage clone peptide SEQ ID NO 248: phage family 3; for competition with phage clone peptide SEQ ID NO 266: phage family 4; for competition with phage clone peptide SEQ ID NO 948: phage family 5. The method, then: as §1, §2, §3
A similar study was performed to evaluate the binding of IL-2Rγc ligands.

Another experiment has as its system NK-92 cells. The experiment is described as follows: STAT5 phosphorylation in NK-92 cells. The conditions noted are these: NK-92 cells, 10, 1, 0.1 μM, 30 min. The class given is cell-based, human.

Procedure for NK-92 cells: NK-92 cells were seeded in a 24-well plate at 4×10^5 cells, in 1 mL starvation medium (SM), and incubated overnight at 37° C., 5% CO2. The starvation medium contained RPMI 1640+20% FBS+2 mM L-glutamine+1 mM NaPyr+10 mM HEPES+0.1 mM BME (no rhIL-2 supplement).
Treatment mixtures were of 1 μg/mL Anti-hIL-2 neutralizing antibody (0.2 mg/mL stock) or goat IgG control (1 mg/mL stock) were prepared.
The treatment mixtures and the antibody mix were added to the cells for 30 min at 37° C., 5% CO2. Each sample was then transferred to a 1.5 mL microfuge tube and spun down at 1,500 RPM for 5 minutes. The cells were washed in 1 mL PBS and centrifuged again.
A phosphatase and protease inhibitor cocktail (Thermo #78442) were added to mPER buffer at a 1:100 dilution. After the cells were pelleted, 50 μL of mPER buffer was added to each sample and pipetted repeatedly to homogenize.
The lysates were centrifuged at 14,000 RPM for 5 min at RT. The supernatants were transferred to clean tubes and stored frozen at −80° C.
The treatment reagents included Anti-STAT5 Antibody (rabbit), Cell Signaling No. 94205S; Anti-pSTAT5 Antibody (rabbit), Cell Signaling No. 4322S; and Goat anti-rabbit IgG-HRP, Jackson Immunoresearch No. 111-035-144.

On to 58 (YDCRIAQVGELCDL) [Peptide 58], for which, in experiment [1], the “competition with phage clone peptide SEQ ID NO: 58” value is listed as “+^1 (Peptide competes with phage binding.)”, the “competition with phage clone peptide SEQ ID NO: 170” value is on record as “+ (Peptide competes with phage binding.)”, the “competition with phage clone peptide SEQ ID NO: 83” value is reported as “+ (Peptide competes with phage binding.)” and the “competition with phage clone peptide SEQ ID NO: 1034” value is given as “+ (Peptide competes with phage binding.)”. The “competition with phage clone peptide SEQ ID NO: 1044” value in experiment [1] is on record as “−”. Further, in the experiment with IL-2Rγc subunit, the “competition with phage clone peptide SEQ ID NO 198” value is “−”, the “competition with phage clone peptide SEQ ID NO 224” value was “−”, the “competition with phage clone peptide SEQ ID NO 236” value is reported as “−” and the “competition with phage clone peptide SEQ ID NO 248” value is “−”. Further, in the experiment with IL-2Rγc subunit, the “competition with phage clone peptide SEQ ID NO 266” value is reported as “−” and the “competition with phage clone peptide SEQ ID NO 948” value was “−”.
As for 58 (YDCRIAQVGELCDL) [compound 58], in the experiment with IL-2Rγc subunit, the “competition for binding to the IL-2Rγc binding site with the group of IL-2Rγc ligands” value is “does not compete”.
As for 169 (NMCLVGDYWPSCQI) [Peptide 169], in experiment [1], the “competition with phage clone peptide SEQ ID NO: 58” value is listed as “+ (Peptide competes with phage binding.)”, the “competition with phage clone peptide SEQ ID NO: 170” value is listed as “+ (Peptide competes with phage binding.)”, the “competition with phage clone peptide SEQ ID NO: 83” value was “+ (Peptide competes with phage binding.)” and the “competition with phage clone peptide SEQ ID NO: 1034” value is listed as “+ (Peptide competes with phage binding.)”. Moreover, the “competition with phage clone peptide SEQ ID NO: 1044” value in experiment [1] is reported as “−”.
Turning to 202 (RTCTEWENVVLCWV) [Peptide 202], in the experiment with IL-2Rγc subunit, the “competition with phage clone peptide SEQ ID NO 198” value is reported as “+^1 (Peptide competes with phage binding.)”, the “competition with phage clone peptide SEQ ID NO 224” value is “+ (Peptide competes with phage binding.)”, the “competition with phage clone peptide SEQ ID NO 236” value is reported as “+ (Peptide competes with phage binding.)” and the “competition with phage clone peptide SEQ ID NO 248” value is reported as “+ (Peptide competes with phage binding.)”. Further, in the experiment with IL-2Rγc subunit, the “competition with phage clone peptide SEQ ID NO 266” value is “+ (Peptide competes with phage binding.)” and the “competition with phage clone peptide SEQ ID NO 948” value was “−”.
224 (DCSMWEGVELCW) [Peptide 224]: in experiment [1], the “competition with phage clone peptide SEQ ID NO: 58” value is given as “−”, the “competition with phage clone peptide SEQ ID NO: 170” value was “−”, the “competition with phage clone peptide SEQ ID NO: 83” value is recorded as “−” and the “competition with phage clone peptide SEQ ID NO: 1034” value is given as “−”. Besides, the “competition with phage clone peptide SEQ ID NO: 1044” value in experiment [1] is “−”. Also, in the experiment with IL-2Rγc subunit, the “competition with phage clone peptide SEQ ID NO 198” value was “+ (Peptide competes with phage binding.)”, the “competition with phage clone peptide SEQ ID NO 224” value was “+ (Peptide competes with phage binding.)”, the “competition with phage clone peptide SEQ ID NO 236” value is reported as “+ (Peptide competes with phage binding.)” and the “competition with phage clone peptide SEQ ID NO 248” value was “+ (Peptide competes with phage binding.)”. In addition, in the experiment with IL-2Rγc subunit, the “competition with phage clone peptide SEQ ID NO 266” value is given as “+ (Peptide competes with phage binding.)” and the “competition with phage clone peptide SEQ ID NO 948” value was “−”.
For 224 (DCSMWEGVELCW) [compound 224], in experiment [1], the “competition for binding to the IL-2Rβ binding site with the group of IL-2Rβ ligands” value is reported as “does not compete”.
With 236 (MCWLEWGEWVGSCL) [Peptide 236], in the experiment with IL-2Rγc subunit, the “competition with phage clone peptide SEQ ID NO 198” value is listed as “+ (Peptide competes with phage binding.)”, the “competition with phage clone peptide SEQ ID NO 224” value is given as “+ (Peptide competes with phage binding.)”, the “competition with phage clone peptide SEQ ID NO 236” value was “+ (Peptide competes with phage binding.)” and the “competition with phage clone peptide SEQ ID NO 248” value is listed as “+ (Peptide competes with phage binding.)”. For the same substance, in the experiment with IL-2Rγc subunit, the “competition with phage clone peptide SEQ ID NO 266” value is listed as “+ (Peptide competes with phage binding.)” and the “competition with phage clone peptide SEQ ID NO 948” value is recorded as “−”.
With 248 (DLSDLCTFWLSQ) [Peptide 248], in the experiment with IL-2Rγc subunit, the “competition with phage clone peptide SEQ ID NO 198” value is “+ (Peptide competes with phage binding.)”, the “competition with phage clone peptide SEQ ID NO 224” value is “+ (Peptide competes with phage binding.)”, the “competition with phage clone peptide SEQ ID NO 236” value is listed as “+ (Peptide competes with phage binding.)” and the “competition with phage clone peptide SEQ ID NO 248” value was “+ (Peptide competes with phage binding.)”. Further, in the experiment with IL-2Rγc subunit, the “competition with phage clone peptide SEQ ID NO 266” value is on record as “+ (Peptide competes with phage binding.)” and the “competition with phage clone peptide SEQ ID NO 948” value is on record as “−”.
In the case of 948 (SLLKCYNASTCASVF) [Peptide 948], in the experiment with IL-2Rγc subunit, the “competition with phage clone peptide SEQ ID NO 198” value is “−^2”, the “competition with phage clone peptide SEQ ID NO 224” value is listed as “−”, the “competition with phage clone peptide SEQ ID NO 236” value is reported as “−” and the “competition with phage clone peptide SEQ ID NO 248” value is on record as “−”. Also, in the experiment with IL-2Rγc subunit, the “competition with phage clone peptide SEQ ID NO 266” value is “−” and the “competition with phage clone peptide SEQ ID NO 948” value is reported as “+ (Peptide competes with phage binding.)”.
On to 948 (SLLKCYNASTCASVF) [compound 948], for which, in the experiment with IL-2Rγc subunit, the “competition for binding to the IL-2Rγc binding site with the group of IL-2Rγc ligands” value is “does not compete”.
Take 1042 (CYEVGDYCQSPL) [Peptide 1042]: in experiment [1], the “competition with phage clone peptide SEQ ID NO: 58” value is on record as “+ (Peptide competes with phage binding.)”, the “competition with phage clone peptide SEQ ID NO: 170” value is recorded as “+ (Peptide competes with phage binding.)”, the “competition with phage clone peptide SEQ ID NO: 83” value is “+ (Peptide competes with phage binding.)” and the “competition with phage clone peptide SEQ ID NO: 1034” value was “+ (Peptide competes with phage binding.)”. The “competition with phage clone peptide SEQ ID NO: 1044” value in experiment [1] was “−”.
Take 1044 (RSCYYKRPRLWCSE) [Peptide 1044]: in experiment [1], the “competition with phage clone peptide SEQ ID NO: 58” value is “−^2”, the “competition with phage clone peptide SEQ ID NO: 170” value is given as “−”, the “competition with phage clone peptide SEQ ID NO: 83” value was “−” and the “competition with phage clone peptide SEQ ID NO: 1034” value is listed as “−”. The “competition with phage clone peptide SEQ ID NO: 1044” value in experiment [1] is “−”.
In the case of 1044 (RSCYYKRPRLWCSE) [compound 1044], in experiment [1], the “competition for binding to the IL-2Rβ binding site with the group of IL-2Rβ ligands” value was “does not compete”.
As to “Compound A: heterodimer of SEQ. ID. NO: 58 and SEQ ID. NO. 224 (chain 1 YDCRIAQVGELCDL; chain 2 DCSMWEGVELCW; cysteine pairing not given here; also: heterodimer, linkage not given here)”, in the experiment with NK-92 cells, the “STAT5 phosphorylation (pSTAT5), Western Blot” value is “induced (in a dose-responsive manner) STAT5 phosphorylation”.
On the same count and under the same terms, the value for “Compound B: heterodimer of SEQ. ID. NO: 58 and SEQ ID. NO. 237 (chain 1 YDCRIAQVGELCDL; chain 2 LCFSEFLGEWVDCN; cysteine pairing not given here; also: heterodimer, linkage not given here)” was “induced (in a dose-responsive manner) STAT5 phosphorylation”.
